We go through 25 molecules from patent US20120093810A1 (EVEC, published 2012).

In experiment [1] the target is T1, synthetic gB peptide, Peptide 21 in Table 5 (human cytomegalovirus, AD169 strain, reading uncertain).
T1 construct: 12-mer of gB; also called peptide number 21
T1 peptide: GNSAYEYVDYLF-{cellulose membrane}
In words: peptide array (SPOTs), dot blot.

Experiment [2] addresses T2, synthetic gB peptide, Peptide 3 in Table 5 (human cytomegalovirus, AD169 strain, reading uncertain).
T2 construct: also called peptide number 3
T2 peptide: SCVTINQTSVKV-{cellulose membrane}
The experiment in a line: peptide array (SPOTs), dot blot.

Experiment [3] concerns the target T3, synthetic gB peptide, Peptide 22 in Table 5 (human cytomegalovirus, AD169 strain, reading uncertain).
T3 construct: 12-mer of gB; also called peptide number 22
T3 peptide: YEYVDYLFKRMI-{cellulose membrane}
The experiment in a line: peptide array (SPOTs), dot blot.

For experiment [4], the target named is T4, synthetic gB peptide, Peptide 8 in Table 5 (human cytomegalovirus, AD169 strain, reading uncertain).
T4 construct: 12-mer of gB; also called peptide number 8
T4 peptide: SPGRCYSRPVVI-{cellulose membrane}
The experiment in a line: peptide array (SPOTs), dot blot.

Experiment [5] has as its target T5, synthetic gB peptide, Peptide 7 in Table 5 (human cytomegalovirus, AD169 strain, reading uncertain).
T5 construct: 12-mer of gB; also called peptide number 7
T5 peptide: NVKESPGRCYSR-{cellulose membrane}
In words: peptide array (SPOTs), dot blot.

The target of experiment [6] is T6, glycoprotein gB of human cytomegalovirus (HCMV) AD169 strain (human cytomegalovirus, AD169 strain, UniProt P06473 32-906). The experiment in a line: cell-based or functional assay.
Experiment [7] concerns the target T6, glycoprotein gB of human …. In words: cell-based or functional assay. This is another data set of the same source.
Experiment [8] deals with glycoprotein gB of clinically isolated HCMV strain T-137 (human cytomegalovirus, clinical isolate …). In words: cell-based or functional assay.
Experiment [9] deals with glycoprotein gB of clinically isolated HCMV strain MDU-1 (human cytomegalovirus, clinical isolate …, UniProt P08195). The experiment in a line: cell-based or functional assay.
The target of experiment [10] is glycoprotein gB of HCMV laboratory strain Towne (human cytomegalovirus, Towne strain, UniProt P13201 23-907). The experiment in a line: cell-based or functional assay.
Experiment [11] addresses glycoprotein gB of HCMV laboratory strain Davis (human cytomegalovirus, Davis strain). In words: cell-based or functional assay.
Experiment [12] addresses glycoprotein gB of HCMV laboratory strain Merlin (human cytomegalovirus, Merlin strain, UniProt F5HB53 25-907). The experiment in a line: cell-based or functional assay.
Experiment [13] addresses T7, GST-fused HCMV-AD1 (AD1 region of HCMV glycoprotein gB) (human cytomegalovirus, AD169 strain, UniProt F5HB53 485-651).
T7 construct: also called solid-phased AD1; AD1 antigen; not shown: glutathione S-transferase (GST) fusion partner
The experiment in a line: ELISA on solid-phased AD1. On the technique in general: ELISA stands for enzyme-linked immunosorbent assay.

Experiment [14] deals with T7, GST-fused HCMV-AD1 (AD1 region of HCMV …). The experiment in a line: ELISA on solid-phased AD1 (5 µg/mL).
For experiment [15], the target named is T6, glycoprotein gB of human …. The experiment in a line: cell-based or functional assay. The source holds these as a separate data set.

Residue numbers refer to the chain shown, from its start. In names and notes the source's numbering stands. No end group written: not given here. cellulose membrane = not defined here

T6 sequence (P06473 32-906 limits assumed): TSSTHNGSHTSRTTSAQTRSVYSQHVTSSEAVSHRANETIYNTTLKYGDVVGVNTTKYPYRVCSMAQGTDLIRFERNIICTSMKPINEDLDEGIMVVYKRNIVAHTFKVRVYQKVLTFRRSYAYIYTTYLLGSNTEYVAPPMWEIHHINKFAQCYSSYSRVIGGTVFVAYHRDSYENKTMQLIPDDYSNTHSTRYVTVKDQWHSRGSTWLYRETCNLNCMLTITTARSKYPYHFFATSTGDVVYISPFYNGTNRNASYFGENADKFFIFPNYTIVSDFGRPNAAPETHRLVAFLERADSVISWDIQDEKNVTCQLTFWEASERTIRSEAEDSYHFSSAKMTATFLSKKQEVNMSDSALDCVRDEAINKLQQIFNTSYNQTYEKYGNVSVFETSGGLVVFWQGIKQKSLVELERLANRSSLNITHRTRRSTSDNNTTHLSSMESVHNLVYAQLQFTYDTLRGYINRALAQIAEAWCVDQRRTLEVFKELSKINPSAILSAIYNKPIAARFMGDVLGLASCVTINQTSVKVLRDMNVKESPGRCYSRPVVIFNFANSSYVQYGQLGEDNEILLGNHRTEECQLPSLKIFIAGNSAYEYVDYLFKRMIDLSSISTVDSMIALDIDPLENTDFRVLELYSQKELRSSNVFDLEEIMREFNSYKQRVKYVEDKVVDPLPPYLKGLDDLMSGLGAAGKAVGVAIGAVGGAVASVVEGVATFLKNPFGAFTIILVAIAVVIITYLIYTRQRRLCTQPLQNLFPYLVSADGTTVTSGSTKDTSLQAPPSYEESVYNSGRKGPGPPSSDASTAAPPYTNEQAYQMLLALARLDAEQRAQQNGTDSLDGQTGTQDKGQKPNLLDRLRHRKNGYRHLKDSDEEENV
glycoprotein gB of clinically isolated HCMV strain MDU-1, sequence (P08195 102-630): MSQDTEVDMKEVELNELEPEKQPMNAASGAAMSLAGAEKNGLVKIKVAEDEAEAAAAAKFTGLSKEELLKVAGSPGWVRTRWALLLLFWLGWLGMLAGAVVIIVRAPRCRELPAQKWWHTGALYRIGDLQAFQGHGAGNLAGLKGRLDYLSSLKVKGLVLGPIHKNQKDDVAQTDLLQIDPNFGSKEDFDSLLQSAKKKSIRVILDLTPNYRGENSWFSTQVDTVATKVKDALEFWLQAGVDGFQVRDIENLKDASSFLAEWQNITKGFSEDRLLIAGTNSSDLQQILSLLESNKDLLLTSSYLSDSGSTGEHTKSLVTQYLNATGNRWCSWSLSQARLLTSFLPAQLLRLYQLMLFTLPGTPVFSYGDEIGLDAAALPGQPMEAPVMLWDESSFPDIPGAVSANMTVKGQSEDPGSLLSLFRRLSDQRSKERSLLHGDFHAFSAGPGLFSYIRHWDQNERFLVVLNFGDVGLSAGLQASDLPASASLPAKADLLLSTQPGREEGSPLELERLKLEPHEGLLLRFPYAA
T7 sequence (F5HB53 485-651): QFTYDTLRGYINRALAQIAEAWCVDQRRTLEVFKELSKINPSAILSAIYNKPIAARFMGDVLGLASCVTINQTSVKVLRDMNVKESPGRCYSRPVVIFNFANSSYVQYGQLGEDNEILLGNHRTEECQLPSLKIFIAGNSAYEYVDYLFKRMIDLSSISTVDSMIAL
glycoprotein gB of HCMV laboratory strain Merlin, sequence (F5HB53 25-907 limits assumed): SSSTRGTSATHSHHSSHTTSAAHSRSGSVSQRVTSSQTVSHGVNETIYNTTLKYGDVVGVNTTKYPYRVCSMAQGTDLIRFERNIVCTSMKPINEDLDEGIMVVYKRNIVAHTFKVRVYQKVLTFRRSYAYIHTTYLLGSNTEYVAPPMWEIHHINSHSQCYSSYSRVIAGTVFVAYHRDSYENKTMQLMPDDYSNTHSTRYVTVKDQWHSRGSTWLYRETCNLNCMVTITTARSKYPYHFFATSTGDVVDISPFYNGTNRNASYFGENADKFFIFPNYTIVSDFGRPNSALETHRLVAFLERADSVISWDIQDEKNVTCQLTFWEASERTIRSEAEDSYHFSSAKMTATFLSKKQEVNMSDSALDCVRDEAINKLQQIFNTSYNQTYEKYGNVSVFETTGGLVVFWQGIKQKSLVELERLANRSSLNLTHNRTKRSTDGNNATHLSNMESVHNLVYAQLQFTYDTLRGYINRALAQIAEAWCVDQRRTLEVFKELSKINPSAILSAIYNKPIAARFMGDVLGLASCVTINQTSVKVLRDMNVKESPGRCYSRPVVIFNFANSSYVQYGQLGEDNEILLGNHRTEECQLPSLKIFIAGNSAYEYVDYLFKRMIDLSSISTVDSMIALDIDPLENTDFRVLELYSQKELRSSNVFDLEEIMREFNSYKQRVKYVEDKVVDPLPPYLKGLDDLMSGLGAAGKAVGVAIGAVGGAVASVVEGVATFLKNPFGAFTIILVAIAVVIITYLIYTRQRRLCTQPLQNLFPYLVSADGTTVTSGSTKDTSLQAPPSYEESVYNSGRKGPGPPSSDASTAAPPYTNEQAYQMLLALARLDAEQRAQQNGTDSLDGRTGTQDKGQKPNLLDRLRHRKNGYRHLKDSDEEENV
glycoprotein gB of HCMV laboratory strain Towne, sequence (P13201 23-907 limits assumed): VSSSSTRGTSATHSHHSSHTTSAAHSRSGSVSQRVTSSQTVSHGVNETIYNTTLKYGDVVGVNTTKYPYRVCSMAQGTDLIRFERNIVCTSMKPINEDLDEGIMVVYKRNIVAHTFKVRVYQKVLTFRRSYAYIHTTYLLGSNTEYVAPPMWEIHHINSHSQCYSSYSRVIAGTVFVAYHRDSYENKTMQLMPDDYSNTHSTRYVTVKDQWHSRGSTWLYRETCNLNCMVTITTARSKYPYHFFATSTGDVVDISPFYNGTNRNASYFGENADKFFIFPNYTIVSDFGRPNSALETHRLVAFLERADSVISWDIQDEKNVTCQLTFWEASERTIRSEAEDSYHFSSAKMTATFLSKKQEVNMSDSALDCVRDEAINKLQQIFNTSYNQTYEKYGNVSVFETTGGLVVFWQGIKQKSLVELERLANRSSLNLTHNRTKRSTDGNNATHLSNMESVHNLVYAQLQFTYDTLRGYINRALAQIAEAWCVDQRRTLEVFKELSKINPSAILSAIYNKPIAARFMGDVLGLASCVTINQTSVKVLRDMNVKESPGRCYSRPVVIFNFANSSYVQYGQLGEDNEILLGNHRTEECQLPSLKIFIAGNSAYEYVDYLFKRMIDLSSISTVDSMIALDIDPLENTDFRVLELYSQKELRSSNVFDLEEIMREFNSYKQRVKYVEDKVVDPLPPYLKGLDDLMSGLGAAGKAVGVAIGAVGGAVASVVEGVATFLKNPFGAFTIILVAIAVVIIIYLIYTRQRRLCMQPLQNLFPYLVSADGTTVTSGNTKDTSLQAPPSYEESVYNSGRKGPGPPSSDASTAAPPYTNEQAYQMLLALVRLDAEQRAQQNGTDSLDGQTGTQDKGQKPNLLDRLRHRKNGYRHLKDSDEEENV

B1: anti-AD1 antibody EV2038 (antibody, human IgG1, lambda, V domains shown)
VH: QVQLQQWGAGLLKPSETLSLTCAVYGGSFSGYYWGWIRQPPGKGLEWIGEINHSGSANSNPSLKSRVTMSVDTSKNQFSLKVSSVTAADTAVYFCARVTRDLEWIPGDYYMDVWGKGTTVTVSS
VL: QSVLTQPPSASGTPGQRVSISCSGSLSNIGTNYVYWYQQLPGTAPKLLIFKNNQRPSGVPDRFSGSKSGTSASLAISGLRSEDEADYYCAAWDDSLNGYVFGTGTKVTVLG
notes: complete human IgG1λ; also called EV2038 (original); anti-HCMV antibody (EV2038)
Take B1: the binding result in experiment [1] is “binds”. In addition, the binding result in [2] is “binds”. The binding result in experiment [3] is listed as “binds”. Also, in [4], the binding result is given as “binds”. Also, the binding result in experiment [5] is recorded as “binds”. In experiment [6], the “IC50 of neutralisation of HCMV AD169 infection of MRC-5 cells (IE1 immunostaining), with complement (Cp+)” value turned out to be 0.58 µg/mL and the “IC50 of neutralisation of HCMV AD169 infection of MRC-5 cells (IE1 immunostaining), without complement (Cp-)” value worked out at 0.57 µg/mL. In experiment [7], the “IC50 of plaque formation, HCMV AD169, fibroblast cell” value amounted to 0.027 µg/mL and the “IC50 of plaque formation, HCMV AD169, fibroblast cell (mol concentration)” value came to 0.18 nM. Besides, in [8], the “IC50 of plaque formation, clinical isolate T-137, fibroblast cell” value was 0.07 µg/mL and the “IC50 of plaque formation, clinical isolate T-137, fibroblast cell (mol concentration)” value came out at 0.47 nM. Moreover, in [9], the “IC50 of plaque formation, clinical isolate MDU-1, epithelial cell” value was 0.04 µg/mL; the “IC50 of plaque formation, clinical isolate MDU-1, fibroblast cell” value worked out at 0.044 µg/mL; the “IC50 of plaque formation, clinical isolate MDU-1, fibroblast cell (mol concentration)” value stood at 0.29 nM. Also, in [10], the “IC50 of plaque formation, HCMV Towne, fibroblast cell” value was 0.025 µg/mL and the “IC50 of plaque formation, HCMV Towne, fibroblast cell (mol concentration)” value was found to be 0.17 nM. Moreover, in experiment [11], the “IC50 of plaque formation, HCMV Davis, fibroblast cell” value was 0.037 µg/mL and the “IC50 of plaque formation, HCMV Davis, fibroblast cell (mol concentration)” value came to 0.25 nM. Moreover, in experiment [12], the “IC50 of plaque formation, HCMV Merlin, fibroblast cell” value was 0.012 µg/mL and the “IC50 of plaque formation, HCMV Merlin, fibroblast cell (mol concentration)” value turned out to be 0.08 nM.

B2: EV2038 CDR-H3 insertion variant G126_D127insE (antibody, V domains shown)
VH: QVQLQQWGAGLLKPSETLSLTCAVYGGSFSGYYWGWIRQPPGKGLEWIGEINHSGSANSNPSLKSRVTMSVDTSKNQFSLKVSSVTAADTAVYFCARVTRDLEWIPGEDYYMDVWGKGTTVTVSS
VL: B1 VL
notes: original EV2038 L-chain
In the case of B2, the binding result in experiment [13] was “no binding”.

B3: EV2038 CDR-H3 deletion variant E122del (antibody, V domains shown)
VH: QVQLQQWGAGLLKPSETLSLTCAVYGGSFSGYYWGWIRQPPGKGLEWIGEINHSGSANSNPSLKSRVTMSVDTSKNQFSLKVSSVTAADTAVYFCARVTRDLWIPGDYYMDVWGKGTTVTVSS
VL: B1 VL
notes: original EV2038 L-chain
For the molecule B3, in [13], the binding result is “no binding”.

B4: EV2038 CDR-H3 variant P125M (antibody, V domains shown)
VH: B1 VH with P106M
VL: B1 VL
notes: original EV2038 L-chain
As for B4, in experiment [14], the binding result is listed as “no binding (tested: 1 µg/mL, dilution series)”.

B5: EV2038 CDR-H3 variant P125F (antibody, V domains shown)
VH: B1 VH with P106F
VL: B1 VL
notes: original EV2038 L-chain
B5: the binding result in [14] was “no binding (tested: 1 µg/mL, dilution series)”.

B6: EV2038 CDR-H3 variant P125Q (antibody, V domains shown)
VH: B1 VH with P106Q
VL: B1 VL
notes: original EV2038 L-chain
For the molecule B6, the binding result in [14] was “no binding (tested: 1 µg/mL, dilution series)”.

B7: EV2038 CDR-H3 variant V132K (antibody, V domains shown)
VH: B1 VH with V113K
VL: B1 VL
With B7, the “50% inhibition concentration (IC50) of HCMV infection (immunostaining method of Abai et al.)” value in experiment [15] worked out at 1.2 µg/mL.

B8: EV2038 CDR-H3 variant I124V (antibody, V domains shown)
VH: B1 VH with I105V
VL: B1 VL
On to B8, for which the “50% inhibition concentration (IC50) of HCMV infection (immunostaining method of Abai et al.)” value in [15] worked out at 0.45 µg/mL.

B9: EV2038 CDR-H3 variant P125K (antibody, V domains shown)
VH: B1 VH with P106K
VL: B1 VL
notes: original EV2038 L-chain
Consider B9, for which the binding result in experiment [14] is given as “no binding (tested: 1 µg/mL, dilution series)”.

B10: EV2038 CDR-H3 variant P125V (antibody, V domains shown)
VH: B1 VH with P106V
VL: B1 VL
notes: original EV2038 L-chain
As to B10, the binding result in experiment [14] is reported as “no binding (tested: 1 µg/mL, dilution series)”.

B11: EV2038 CDR-H3 variant P125I (antibody, V domains shown)
VH: B1 VH with P106I
VL: B1 VL
notes: original EV2038 L-chain
Regarding B11, the binding result in experiment [14] was “no binding (tested: 1 µg/mL, dilution series)”.

B12: EV2038 CDR-H3 variant P125R (antibody, V domains shown)
VH: B1 VH with P106R
VL: B1 VL
notes: original EV2038 L-chain
For the molecule B12, the binding result in experiment [14] is reported as “no binding (tested: 1 µg/mL, dilution series)”.

B13: EV2038 CDR-H3 variant P125A (antibody, V domains shown)
VH: B1 VH with P106A
VL: B1 VL
notes: original EV2038 L-chain
As to B13, the binding result in experiment [14] is given as “no binding (tested: 1 µg/mL, dilution series)”.

B14: EV2038 CDR-H3 variant P125D (antibody, V domains shown)
VH: B1 VH with P106D
VL: B1 VL
notes: original EV2038 L-chain
For the molecule B14, the binding result in experiment [14] is “no binding (tested: 1 µg/mL, dilution series)”.

B15: EV2038 CDR-H3 variant P125N (antibody, V domains shown)
VH: B1 VH with P106N
VL: B1 VL
notes: original EV2038 L-chain
As to B15, in experiment [14], the binding result is recorded as “no binding (tested: 1 µg/mL, dilution series)”.

B16: EV2038 CDR-H3 variant P125Y (antibody, V domains shown)
VH: B1 VH with P106Y
VL: B1 VL
notes: original EV2038 L-chain
For B16, the binding result in [14] is “no binding (tested: 1 µg/mL, dilution series)”.

B17: EV2038 CDR-H3 variant P125S (antibody, V domains shown)
VH: B1 VH with P106S
VL: B1 VL
notes: original EV2038 L-chain
Take B17: the binding result in experiment [14] is “no binding (tested: 1 µg/mL, dilution series)”.

B18: EV2038 CDR-H3 variant P125H (antibody, V domains shown)
VH: B1 VH with P106H
VL: B1 VL
notes: original EV2038 L-chain
Take B18: the binding result in experiment [14] was “no binding (tested: 1 µg/mL, dilution series)”.

B19: EV2038 CDR-H3 variant P125T (antibody, V domains shown)
VH: B1 VH with P106T
VL: B1 VL
notes: original EV2038 L-chain
As to B19, the binding result in [14] is “no binding (tested: 1 µg/mL, dilution series)”.

B20: EV2038 CDR-H3 variant P125C (antibody, V domains shown)
VH: B1 VH with P106C
VL: B1 VL
notes: original EV2038 L-chain
Turning to B20, in [14], the binding result is given as “no binding (tested: 1 µg/mL, dilution series)”.

B21: EV2038 CDR-H3 variant I124D (antibody, V domains shown)
VH: B1 VH with I105D
VL: B1 VL
notes: original EV2038 L-chain
With B21, the binding result in experiment [13] is listed as “no binding”.

B22: EV2038 CDR-H3 variant P125L (antibody, V domains shown)
VH: B1 VH with P106L
VL: B1 VL
notes: original EV2038 L-chain
As to B22, in experiment [14], the binding result is listed as “no binding (tested: 1 µg/mL, dilution series)”.

B23: EV2038 CDR-H3 variant P125E (antibody, V domains shown)
VH: B1 VH with P106E
VL: B1 VL
notes: original EV2038 L-chain
With B23, in experiment [14], the binding result was “no binding (tested: 1 µg/mL, dilution series)”.

B24: EV2038 CDR-H3 variant P125G (antibody, V domains shown)
VH: B1 VH with P106G
VL: B1 VL
notes: original EV2038 L-chain
As for B24, in [14], the binding result is recorded as “no binding (tested: 1 µg/mL, dilution series)”.

B25: EV2038 CDR-H3 variant P125W (antibody, V domains shown)
VH: B1 VH with P106W
VL: B1 VL
notes: original EV2038 L-chain
Regarding B25, the binding result in experiment [14] is “no binding (tested: 1 µg/mL, dilution series)”.
